Experimental data from patent US20220298235A1 (AKESO BIOPHARMA, published 2022).

How the values were obtained:
[1] = target: T1, Human IL12 (His Tag) (human, UniProt P29459 23-219; P29460 23-328); experiment: FACS competition, IL-12-His 20 nM on 293T-IL-12Rβ1&IL-23R cells; antibody 0.01 µg/mL
T1 construct: Bought His-tagged heterodimer
T1 sequence (looked up) 1: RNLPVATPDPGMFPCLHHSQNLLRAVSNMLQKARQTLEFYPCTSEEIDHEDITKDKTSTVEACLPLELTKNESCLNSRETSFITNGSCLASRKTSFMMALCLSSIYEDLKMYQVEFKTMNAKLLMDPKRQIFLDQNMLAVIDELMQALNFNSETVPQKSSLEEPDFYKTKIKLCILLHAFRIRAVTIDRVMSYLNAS
T1 sequence (looked up) 2: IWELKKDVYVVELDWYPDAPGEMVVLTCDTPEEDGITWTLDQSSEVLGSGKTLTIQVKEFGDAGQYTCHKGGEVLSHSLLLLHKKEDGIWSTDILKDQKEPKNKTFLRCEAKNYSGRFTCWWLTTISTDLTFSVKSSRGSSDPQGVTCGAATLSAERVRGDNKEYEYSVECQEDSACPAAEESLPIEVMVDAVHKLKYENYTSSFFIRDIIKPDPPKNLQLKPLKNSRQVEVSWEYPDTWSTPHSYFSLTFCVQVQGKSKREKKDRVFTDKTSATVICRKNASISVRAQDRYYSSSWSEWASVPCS
Method: (§1) 200 μL of 1% PBSA was added into each sample, and the mixture was centrifuged at 700×g for 5 min to discard the supernatant. According to experiment design, correspondingly diluted antibody (highest final concentration of 30 μg/mL, 3-fold dilution, 8 concentrations in total) and human IL-12 (Sino Biological, Cat. No.: CT-050-H08H-20) (final concentration of 20 nM) were mixed at a ratio of 1:1, and a blank control was set. The mixture of antibody and human IL12 was incubated on ice for 30 min and then added to the cell precipitate at 100 μL/sample. The resulting mixture was well mixed and incubated on ice for 60 min 200 μL of 1% PBSA was added, and the mixture was centrifuged at 700×g for 5 min to discard the supernatant, and then washed twice. Alexa Fluor® 488 anti-His tag antibody (Biolegend, Cat. No.: 652509) was diluted at a ratio of 1:400 and added to each tube at 100 μL. The mixture was well mixed and incubated on ice for 40 min in the absence of light. 200 μL of 1% PBSA was added, and the mixture was centrifuged at 700×g for 5 min to discard the supernatant, and then washed twice. 1% PBSA was added at 200 μL/tube, and the cells were resuspended and transferred to a flow cytometry tube for testing.

[2] = target: T2, human IL-23 (IL-23-His-Biotin) (human, UniProt Q9NPF7 20-189; P29460 23-328, biotin label, site not stated); experiment: FACS competition, IL-23-His-Biotin 2 µg/mL on 293T-IL-12Rβ1&IL-23R cells; antibody 0.04 µg/mL
T2 construct: Akesobio lot 20161209; His-tagged and biotinylated
T2 sequence (looked up) 1: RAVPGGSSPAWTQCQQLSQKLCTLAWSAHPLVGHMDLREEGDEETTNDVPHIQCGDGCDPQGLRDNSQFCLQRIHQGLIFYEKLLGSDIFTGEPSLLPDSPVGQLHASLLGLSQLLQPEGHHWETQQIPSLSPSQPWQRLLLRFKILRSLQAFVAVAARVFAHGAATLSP
T2 sequence (looked up) 2: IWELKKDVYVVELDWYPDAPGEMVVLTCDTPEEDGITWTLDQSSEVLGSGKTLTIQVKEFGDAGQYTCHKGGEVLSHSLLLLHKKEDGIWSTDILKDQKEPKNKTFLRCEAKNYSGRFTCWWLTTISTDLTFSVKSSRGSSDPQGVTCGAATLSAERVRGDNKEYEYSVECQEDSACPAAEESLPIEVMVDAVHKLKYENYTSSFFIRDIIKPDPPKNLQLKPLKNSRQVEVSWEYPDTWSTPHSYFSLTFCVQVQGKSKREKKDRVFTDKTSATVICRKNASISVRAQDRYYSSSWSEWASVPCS
Method: (§2) 200 μL of 1% PBSA was added into each sample, and the mixture was centrifuged at 700×g for 5 min to discard the supernatant. According to experiment design, correspondingly diluted antibody (highest final concentration of 30 μg/mL, 3-fold dilution, 8 concentrations in total) and human IL-23 (IL-23-His-Biotin, Akesobio, 20161209) (final concentration of 2 μg/mL) were mixed at a ratio of 1:1, and a blank control was set. The mixture of antibody and human IL23 was incubated on ice for 30 min and then added to the cell precipitate at 100 μL/sample. The resulting mixture was well mixed and incubated on ice for 60 min. 200 μL of 1% PBSA was added, and the mixture was centrifuged at 700×g for 5 min to discard the supernatant, and then washed twice. FITC Steptavidin (Biolegend, Cat. No.: 405202) was diluted at a ratio of 1:500 and added to each tube at 100 μL. The mixture was well mixed and incubated on ice for 40 min in the absence of light. 200 μL of 1% PBSA was added, and the mixture was centrifuged at 700×g for 5 min to discard the supernatant, and then washed twice. 1% PBSA was added at 200 μL/tube, and the cells were resuspended and transferred to a flow cytometry tube for testing.

[3] = target: T1, Human IL12 (His Tag); experiment: FACS competition, IL-12-His 20 nM on 293T-IL-12Rβ1&IL-23R cells; antibody 3.33 µg/mL
Method: as §1

[4] = target: T3, human p40-His (human, UniProt P29460 23-328); experiment: BLI (Fortebio), p40-His on HIS1K sensor, antibody 5-0.31 nM, 37 °C, 1:1 fit
T3 construct: Made by Akeso Biopharma; construct limits and tag not described; also called human IL-12/IL-23 p40 protein domain; human IL-12/IL-23 p40; not shown: His tag
T3 sequence (looked up): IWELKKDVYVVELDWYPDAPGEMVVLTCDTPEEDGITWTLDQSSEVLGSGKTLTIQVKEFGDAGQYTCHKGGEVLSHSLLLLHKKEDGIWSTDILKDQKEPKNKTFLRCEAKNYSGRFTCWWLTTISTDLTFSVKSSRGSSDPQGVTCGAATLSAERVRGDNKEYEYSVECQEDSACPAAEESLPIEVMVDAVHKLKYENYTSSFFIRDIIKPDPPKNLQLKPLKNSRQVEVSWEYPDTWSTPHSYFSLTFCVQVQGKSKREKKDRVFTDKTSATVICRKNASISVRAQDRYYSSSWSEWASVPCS
Method: The sample dilution buffer for H5L9, H5L10, H5L11, H5L12, H5L14, H8L15, Ab123FR1 and ustekinumab was PBS (0.02% Tween-20, 0.1% BSA, pH 7.4). p40-His was immobilized on a HIS1K (manufacturer: Fortebio, Cat. No.: 18-5120) sensor at a concentration of 1 μg/mL for 40 s. The sensor was equilibrated in a buffer for 60 s, and the p40-His immobilized on the sensor bound to the antibody at a concentration of 5-0.31 nM (two-fold dilution) for 120 s, and then the protein dissociated in the buffer for 300 s. The sensor was refreshed with 10 mM glycine solution (pH=1.5). The detection temperature was 37° C., the detection frequency was 0.3 Hz, and the sample plate shaking rate was 500 rpm. The data were analyzed by 1:1 model fitting to obtain affinity constants.

[5] = target: T1, Human IL12 (His Tag); experiment: FACS competition, IL-12-His 20 nM on 293T-IL-12Rβ1&IL-23R cells; antibody 0.04 µg/mL
Method: as §1

[6] = target: T2, human IL-23 (IL-23-His-Biotin); experiment: FACS competition, IL-23-His-Biotin 2 µg/mL on 293T-IL-12Rβ1&IL-23R cells; antibody 0.37 µg/mL
Method: as §2

MFI [1] [MFI]	MFI [2] [MFI]	MFI [3] [MFI]	Kd [4] [nM]	S E (kon) [4] [M⁻¹ s⁻¹]	S E(kdis) [4] [s⁻¹]	koff [4] [s⁻¹]	kon [4] [M⁻¹ s⁻¹]	MFI [5] [MFI]	MFI [6] [MFI]	Binder
160	216	29.7	0.0864	251000	0.000181	0.000172	1.99e+06	150	186	ustekinumab (antibody, V domains shown) VH: EVQLVQSGAEVKKPGESLKISCKGSGYSFTTYWLGWVRQMPGKGLDWIGIMSPVDSDIRYSPSFQGQVTMSVDKSITTAYLQWNSLKASDTAMYYCARRRPGQGYFDFWGQGTLVTVSS VL: DIQMTQSPSSLSASVGDRVTITCRASQGISSWLAWYQQKPEKAPKSLIYAASSLQSGVPSRFSGSGSGTDFTLTISSLQPEDFATYYCQQYNIYPYTFGQGTKLEIK
163	230	40.2	0.121	364000	0.000222	0.000435	3.58e+06	154	169	H5L10 (antibody, human IgG1, kappa, V domains shown, human IgG1 / kappa constant regions; also called humanized antibody H5L10) VH: EVQLVQSGAEVKKPGESLKISCQSSGYSFTTYWIGWVRQMPGQGLEWIGIMSPVDSDIRYNPMFRGQVTMSVDKSSSTAYLQWSSLKASDTAMYYCARRRPGQGYFDFWGQGTMVTVSS VL: EIVLTQSPATLSASPGERATISCRASQSVGSWLAWYQQKPGQAPRSLIYAASNLQSGIPARFSGSGSGTDFTLTISSLEPEDFAVYYCQQYNIYPYTFGQGTRLEIKR
169	221	146	0.849	850000	0.000307	0.0092	1.08e+07	158	206	H5L9 (antibody, human IgG1, kappa, V domains shown, human IgG1 (P01857) / kappa (P01834) constant regions; also called humanized antibody H5L9) VH: EVQLVQSGAEVKKPGESLKISCQSSGYSFTTYWIGWVRQMPGQGLEWIGIMSPVDSDIRYNPMFRGQVTMSVDKSSSTAYLQWSSLKASDTAMYYCARRRPGQGYFDFWGQGTMVTVSS VL: DIQMTQSPSSLSASVGDRVTITCKASQNVGSWLAWYQQKPGKAPKSLIYSASSRQSGVPSRFSGSGSGTDFTLTISSLQPEDFATYYCQQYDIYPFTFGQGTKLEIKR
161	234	31.8	0.0905	212000	0.000124	0.000348	3.84e+06	149	177	H5L12 (antibody, human IgG1, kappa, V domains shown, human IgG1 / kappa constant regions; also called humanized antibody H5L12) VH: EVQLVQSGAEVKKPGESLKISCQSSGYSFTTYWIGWVRQMPGQGLEWIGIMSPVDSDIRYNPMFRGQVTMSVDKSSSTAYLQWSSLKASDTAMYYCARRRPGQGYFDFWGQGTMVTVSS VL: EIVLTQSPATLSASPGERATISCRASQSVSSWLAWYQQKPGQAPRSLIYAASNRQSGIPARFSGSGSGTDFTLTISSLEPEDFAVYYCQQYNIYPYTFGQGTRLEIKR
149	216	51.9	0.062	236000	0.000158	0.000182	2.94e+06	155	179	H5L14 (antibody, human IgG1, kappa, V domains shown, human IgG1 / kappa constant regions; also called humanized antibody H5L14) VH: EVQLVQSGAEVKKPGESLKISCQSSGYSFTTYWIGWVRQMPGQGLEWIGIMSPVDSDIRYNPMFRGQVTMSVDKSSSTAYLQWSSLKASDTAMYYCARRRPGQGYFDFWGQGTMVTVSS VL: EIVLTQSPATLSASPGERATISCRASQSVSSWLAWYQQKPGQAPRSLIYAASNLQSGIPARFSGSGSGTDFTLTISSLEPEDFAVYYCQQYNIYPFTFGQGTRLEIKR
166	224	42.2	0.136	232000	0.000144	0.000428	3.15e+06	151	179	H5L11 (antibody, human IgG1, kappa, V domains shown, human IgG1 / kappa constant regions; also called humanized antibody H5L11) VH: EVQLVQSGAEVKKPGESLKISCQSSGYSFTTYWIGWVRQMPGQGLEWIGIMSPVDSDIRYNPMFRGQVTMSVDKSSSTAYLQWSSLKASDTAMYYCARRRPGQGYFDFWGQGTMVTVSS VL: EIVLTQSPATLSASPGERATISCRASQSVSSWLAWYQQKPGQAPRSLIYSASNLQSGIPARFSGSGSGTDFTLTISSLEPEDFAVYYCQQYNIYPYTFGQGTRLEIKR
